Assay results: patent publication US20080076717A1
pKd: −log10 of the molar value.

Target: SPR-8: ASARM-PO4 biotin
Assay: SPR (Biacore 3000): biotinylated ASARM-PO4 captured on neutravidin, PHEX as analyte

pKd: 6.77
Substance: PHEX (free soluble-PHEX analyte) (from UniProt P78562 46-749) (enzyme)
